Numbering of substitutions follows the chain as printed.
B1: ADI-46356 (antibody, V domains shown)
VH: QVQLVQSGAEVKKPGASVKVSCKASGFNIKDYYMHWVRQAPGQRLEWIGWIDLENANTVYDAKFQGRVTITRDTSASTAYMELSSLRSEDTAVYYCARDAYGRYFYDVWGQGTLVTVSS
VL: DIVMTQSPDSLAVSLGERATINCKSSQSLLNARTGKNYLAWYQQKPGQPPKLLIYWASTRESGVPDRFSGSGSGTDFTLTISSLQAEDVAVYYCVQSYFRRTFGGGTKVEIK
B2: ADI-46375 (antibody, V domains shown)
VH: B1 VH
VL: B1 VL with G35R, V95T
notes: also called Ab38
B3: ADI-46372 (antibody, V domains shown)
VH: B1 VH with S77G, Y80H, L114P
VL: B1 VL
notes: also called Ab36
B4: ADI-45974 (antibody, V domains shown)
VH: B1 VH with S85N
VL: B1 VL with V95K
notes: also called Ab10
B5: ADI-46374 (antibody, V domains shown)
VH: B1 VH with E54N
VL: B1 VL
notes: also called Ab37
B6: ADI-45964 (antibody, V domains shown)
VH: B1 VH with M34I
VL: B1 VL with V95A
notes: also called Ab27
B7: ADI-45976 (antibody, V domains shown)
VH: B1 VH with A97V
VL: B1 VL
notes: also called Ab12
B8: ADI-46371 (antibody, V domains shown)
VH: B1 VH with V2A, L45P, V93A
VL: B1 VL
notes: also called Ab35
B9: ADI-46363 (antibody, V domains shown)
VH: B1 VH
VL: B1 VL with V95T
notes: also called Ab47
B10: ADI-46364 (antibody, V domains shown)
VH: B1 VH with F64L, R87G
VL: B1 VL
notes: also called Ab48
B11: ADI-45961 (antibody, V domains shown)
VH: B1 VH
VL: B1 VL with G35R, K36R, A57G, V95K
notes: also called Ab24
B12: ADI-45973 (antibody, V domains shown)
VH: B1 VH with G8E
VL: B1 VL with V95K
notes: also called Ab9
B13: ADI-46379 (antibody, V domains shown)
VH: B1 VH with T78A
VL: B1 VL with T59A, V95T
notes: also called Ab41
B14: ADI-46358 (antibody, V domains shown)
VH: B1 VH with S85N
VL: B1 VL with V95T
notes: also called Ab31
B15: ADI-45967 (antibody, V domains shown)
VH: B1 VH with T71A, A79V
VL: B1 VL with T20I, V95T
notes: also called Ab3
B16: ADI-45965 (antibody, V domains shown)
VH: B1 VH with T58A
VL: B1 VL with E17G
notes: also called Ab28
B17: ADI-46370 (antibody, V domains shown)
VH: B1 VH with A62H
VL: B1 VL
notes: also called Ab34
B18: ADI-45966 (antibody, V domains shown)
VH: B1 VH with T69A
VL: B1 VL with V95T
notes: also called Ab29
B19: ADI-46365 (antibody, V domains shown)
VH: B1 VH with S77G, Y80H, L114P
VL: B1 VL with V95T
notes: also called Ab49
B20: ADI-46376 (antibody, V domains shown)
VH: B1 VH with F64L, R87G, L114P
VL: B1 VL with V95T
notes: also called Ab39
B21: ADI-45969 (antibody, V domains shown)
VH: B1 VH with S84G
VL: B1 VL with V95A
notes: also called Ab5
B22: ADI-46360 (antibody, V domains shown)
VH: B1 VH with L45P, T91A, V93A
VL: B1 VL with K51E, V95T
notes: also called Ab44
B23: ADI-46369 (antibody, V domains shown)
VH: B1 VH with V2A, A62T
VL: B1 VL
notes: also called Ab33
B24: ADI-46362 (antibody, V domains shown)
VH: B1 VH with L45P, V93A
VL: B1 VL
notes: also called Ab46
B25: ADI-45972 (antibody, V domains shown)
VH: B1 VH with K13R
VL: B1 VL
notes: also called Ab8
B26: ADI-45963 (antibody, V domains shown)
VH: B1 VH with S17P
VL: B1 VL with V95K
notes: also called Ab26
B27: ADI-45960 (antibody, V domains shown)
VH: B1 VH
VL: B1 VL with V89A, V95A
notes: also called Ab23
B28: ADI-45968 (antibody, V domains shown)
VH: B1 VH with T74A
VL: B1 VL
notes: also called Ab4
B29: ADI-46361 (antibody, V domains shown)
VH: B1 VH with I29N
VL: B1 VL with V95T
notes: also called Ab45
B30: ADI-45962 (antibody, V domains shown)
VH: B1 VH with K12E, K13E
VL: B1 VL
notes: also called Ab25
B31: ADI-46367 (antibody, V domains shown)
VH: B1 VH with T78I
VL: B1 VL with V95A
notes: also called Ab32
B32: ADI-46381 (antibody, V domains shown)
VH: B1 VH with A62T
VL: B1 VL with S25T, S28G, G35N
notes: also called Ab43
B33: ADI-45971 (antibody, V domains shown)
VH: B1 VH with S17T, M34I
VL: B1 VL with G35R
notes: also called Ab7
B34: ADI-45970 (antibody, V domains shown)
VH: B1 VH with I29V
VL: B1 VL with V95K
notes: also called Ab6

target: T1, Human CD3 on Human CD3+ Jurkat cells (human, UniProt P07766 23-207); test: cell binding hCD3, fold over background
T1 construct: whole, on cells; CD3 complex on cells; also called hCD3
T1 sequence (P07766 23-207): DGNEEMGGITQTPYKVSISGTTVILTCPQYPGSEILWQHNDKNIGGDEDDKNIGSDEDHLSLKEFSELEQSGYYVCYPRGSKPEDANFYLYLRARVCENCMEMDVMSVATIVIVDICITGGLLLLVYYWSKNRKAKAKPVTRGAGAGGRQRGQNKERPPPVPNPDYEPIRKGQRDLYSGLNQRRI

In order of rising “Cell Binding hCD3 (FOB)” value:
1. B20  4 FOB
2. B24  7 FOB
3. B31  8 FOB
4. B3  14 FOB
5. B18  14 FOB
6. B26  14 FOB
7. B28  16 FOB
8. B11  18 FOB
9. B30  18 FOB
10. B33  21 FOB
11. B29  23 FOB
12. B21  28 FOB
13. B25  32 FOB
14. B10  33 FOB
15. B16  33 FOB
16. B23  33 FOB
17. B14  35 FOB
18. B19  36 FOB
19. B5  37 FOB
20. B1  39 FOB
21. B15  40 FOB
22. B17  40 FOB
23. B22  40 FOB
24. B13  43 FOB
25. B7  45 FOB
26. B4  47 FOB
27. B8  47 FOB
28. B2  48 FOB
29. B9  49 FOB
30. B34  53 FOB
31. B12  55 FOB
32. B6  56 FOB
33. B27  63 FOB
34. B32  71 FOB

target: T2, Cynomolgus CD3 on Cyno CD3+ Jurkat cells (cynomolgus, UniProt Q95LI5 22-198); test: cell binding cCD3, fold over background
T2 construct: whole, on cells; CD3 on cells; also called cCD3
T2 sequence (Q95LI5 22-198): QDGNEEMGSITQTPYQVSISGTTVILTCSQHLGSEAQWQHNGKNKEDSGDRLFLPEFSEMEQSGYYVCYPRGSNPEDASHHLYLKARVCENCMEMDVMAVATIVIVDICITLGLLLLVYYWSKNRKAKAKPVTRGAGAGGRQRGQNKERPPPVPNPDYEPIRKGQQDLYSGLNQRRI

In order of rising “Cell Binding cCD3 (FOB)” value:
1. B28  18 FOB
2. B33  20 FOB
3. B18  27 FOB
4. B5  29 FOB
5. B11  30 FOB
6. B2  40 FOB
7. B25  45 FOB
8. B17  46 FOB
9. B30  46 FOB
10. B27  58 FOB
11. B1  59 FOB
12. B15  59 FOB
13. B31  62 FOB
14. B6  63 FOB
15. B10  63 FOB
16. B21  63 FOB
17. B4  67 FOB
18. B34  68 FOB
19. B26  69 FOB
20. B23  71 FOB
21. B3  80 FOB
22. B14  82 FOB
23. B19  84 FOB
24. B29  84 FOB
25. B12  91 FOB
26. B24  95 FOB
27. B20  96 FOB
28. B13  105 FOB
29. B22  106 FOB
30. B7  109 FOB
31. B8  121 FOB
32. B16  124 FOB
33. B9  129 FOB
34. B32  174 FOB

target: Human CD3εδ-Fc (human) (UniProt P04234); test: KD of scFv-Fc or IgG on human CD3εδ-Fc; instrument not given
Sequence (chain, as listed by the source mutant, chain 1 of 2): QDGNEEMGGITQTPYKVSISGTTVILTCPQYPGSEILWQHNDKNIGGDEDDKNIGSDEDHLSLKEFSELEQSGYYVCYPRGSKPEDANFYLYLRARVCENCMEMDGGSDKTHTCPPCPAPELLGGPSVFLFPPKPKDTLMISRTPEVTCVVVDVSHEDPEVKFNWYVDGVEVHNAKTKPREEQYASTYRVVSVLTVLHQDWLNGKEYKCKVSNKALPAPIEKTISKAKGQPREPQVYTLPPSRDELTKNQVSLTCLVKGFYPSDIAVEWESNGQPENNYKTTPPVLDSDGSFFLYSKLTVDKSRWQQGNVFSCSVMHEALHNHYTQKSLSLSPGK
Sequence (P04234 22-105, stated change not applied, chain 2 of 2): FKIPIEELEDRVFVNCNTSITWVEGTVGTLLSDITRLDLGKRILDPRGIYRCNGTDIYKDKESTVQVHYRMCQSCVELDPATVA

In order of rising Kd:
1. B21  0.06 nM
2. B18  0.061 nM
3. B16  0.065 nM
4. B28  0.068 nM
5. B26  0.069 nM
6. B15  0.076 nM
7. B25  0.081 nM
8. B6  0.097 nM
9. B33  0.11 nM
10. B7  0.12 nM
11. B27  0.14 nM
12. B30  0.14 nM
13. B34  0.15 nM
14. B12  0.16 nM
15. B4  0.19 nM
16. B11  0.23 nM
17. B32  0.72 nM
18. B24  0.8 nM
19. B5  0.84 nM
20. B2  0.86 nM
21. B8  0.86 nM
22. B23  0.92 nM
23. B9  0.93 nM
24. B29  0.93 nM
25. B31  0.95 nM
26. B10  0.97 nM
27. B22  0.97 nM
28. B1  0.98 nM
29. B14  0.99 nM
30. B13  1 nM
31. B17  1 nM
32. B19  1 nM
33. B20  1 nM
34. B3  1.1 nM

target: Cyno CD3εδ-Fc (cynomolgus) (UniProt Q95LI8); test: KD of scFv-Fc or IgG on cyno CD3εδ-Fc; instrument not given
Sequence (chain, as listed by the source mutant, chain 1 of 2): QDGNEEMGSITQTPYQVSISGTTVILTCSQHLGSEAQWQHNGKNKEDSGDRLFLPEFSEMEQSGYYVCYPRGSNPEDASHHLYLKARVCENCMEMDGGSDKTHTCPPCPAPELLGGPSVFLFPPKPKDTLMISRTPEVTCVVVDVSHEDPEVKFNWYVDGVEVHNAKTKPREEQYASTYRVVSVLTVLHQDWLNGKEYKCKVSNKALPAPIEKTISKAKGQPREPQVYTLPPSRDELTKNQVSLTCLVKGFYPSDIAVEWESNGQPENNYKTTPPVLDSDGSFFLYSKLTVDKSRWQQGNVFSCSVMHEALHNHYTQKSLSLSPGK
Sequence (Q95LI8 22-105, stated change not applied, chain 2 of 2): as the sequence (P04234 22-105, stated change not applied, chain 2 of 2) above, with I5V, N15K, I20V, S32T, D33N, I34N, T64A, S74N, V83L counted along it

In order of rising Kd:
1. B18  1.2 nM
2. B15  1.4 nM
3. B16  1.4 nM
4. B25  1.4 nM
5. B28  1.4 nM
6. B30  1.4 nM
7. B21  1.5 nM
8. B34  1.6 nM
9. B7  1.8 nM
10. B12  1.8 nM
11. B27  1.8 nM
12. B33  1.9 nM
13. B6  2 nM
14. B4  2.1 nM
15. B26  2.1 nM
16. B11  3 nM

— US20260209352A1 (Adimab, published 2026)
